Experimental findings from PMC9519731, “The soluble form of CD160 acts as a tumor mediator of immune escape in melanoma” (Cancer Immunology, Immunotherapy : CII, 2022) are described below.

For orientation: stoichiometry N means a count of units in the complex or per binding partner.

This data set concerns the molecule itself. The data set can be described thus: immunoprecipitation, non-reducing SDS-PAGE and Western blot; culture supernatants of confluent melanoma cell lines immunoprecipitated with H3 mAb, SDS-10% PAGE under non-reducing condition, blot with HRP-coupled H3 mAb.

B1: soluble form of CD160 (sCD160) released by melanoma cell lines (natural protein, UniProt O95971 25-159, looked up)
chain: GCINITSSASQEGTRLNLICTVWHKKEEAEGFVVFLCKDRSGDCSPETSLKQLRLKRDPGIDGVGEISSQLMFTISQVTPLHSGTYQCCARSQKSGIRLQGHFFSILFTETGNYTVTGLKQRQHLEFSHNEGTLS
notes: soluble form of CD160, derived from the CD160-GPI isoform, released by human melanoma cell lines; recovered as a 55-kDa species called dimeric sCD160; also called secreted sCD160; sCD160 produced by WM1361; source: endogenous, culture supernatant of melanoma cell lines (WM1361, COLO829, SKMEL5)
Regarding B1, the “stoichiometry N” value is 2.
